Measurements as given in US20240279618A1, “RECEPTOR TYROSINE KINASE AGONIST, COMPOSITION FOR CELL CULTURE MEDIUM, AND […] MAINTENANCE COMPOSITION” (SEKISUI CHEMICAL CO., LTD., priority 2021, published 2024).

Key:
[1] = test system: human bone marrow-derived MSC; test: MSC culture: evaluation of cell growth and morphology; type: cell-based; design: key to P3 Growth rate / P4 Growth rate / P5 Growth rate: cells per well at passage divided by cells at seeding; details: for P2 Count (3-well) / P2 Growth rate / P3 Count (3-well) / P3 Growth rate / P4 Count (3-well) / P4 Growth rate / P5 Count (3-well) / P5 Growth rate / cumulative number of cells (average value), P1 / cumulative number of cells (average value), P2 / cumulative number of cells (average value), P3 / cumulative number of cells (average value), P4 / cumulative number of cells (average value), P5 / P1 Count (2-well): MSC, 20 ng/mL; for cumulative number of cells (average value), P1: culture day 5; for cumulative number of cells (average value), P2: culture day 10; for cumulative number of cells (average value), P3: culture day 15; for cumulative number of cells (average value), P4: culture day 20; for cumulative number of cells (average value), P5: culture day 25; for growth performance of MSC (cumulative number of cells): regardless of the FBS concentration (10% or 20%); for morphology of MSC: 4 passages, Day 1
Method: 10 mL of a used portion of D-MEM medium (Low Glucose, Glutamine) (Fujifilm Wako Pure Chemical Corporation, C/N: 041-29775) was added to a 15 mL PP tube, and warmed in a thermostatic water tank (set at 37° C.). A human bone marrow-derived MSC (Stemcell Technologies, C/N: 70022) stock tube preserved in a liquid nitrogen gas phase was taken out from a liquid nitrogen container and thawed in a thermostatic water tank (set at 37° C.). Thereafter, the cells were rapidly moved with a pipette into the tube (including 10 mL of the medium) that had been heated to 37° C. in a clean bench, and mixed by pipetting. The tube was centrifuged (300× g, 5 minutes) and the supernatant was removed with an aspirator.
An appropriate amount of D-MEM that had been warmed to room temperature was added to a cell pellet and mixed, and then the number of cells was evaluated with a cell counter. An appropriate amount of the cell suspension was taken into a 15 mL PP tube and centrifuged (300× g, 5 minutes). The supernatant was removed, an appropriate amount of D-MEM (containing 10% or 20% of FBS (Thermo Fisher Scientific Inc., 16140071); the stock was preserved under refrigeration and used within 2 weeks) was added to a cell pellet to adjust a cell suspension (1).
The number of cells was evaluated again with a cell counter and the cells were appropriately diluted with each of the media. Next, a stock of basic FGF or VHH was added to the cell suspension (1), so that each of the final concentrations was 1 ng/ml or ng/mL. Seeding was performed onto a CellBIND 6-well plate (Coming, C/N: 3335) at a density of 3-5×10^4/well, and after 2 to 4 days, medium exchange was performed using D-MEM (containing 10% FBS or 20% FBS).
The cells were observed under a microscope, and basically, passage was carried out after 5 days from seeding. In advance, the used D-MEM (0% FBS, 10% FBS, or 20% FBS) was warmed in advance in a thermostatic water tank (set at 37° C.). After washing the cells with D-PBS, 500 μL of TrypLE Express was added thereto and the cells were left to stand in a CO2 incubator. After 5 to 10 minutes, the culture container was removed from the CO2 incubator, and a change in cell morphology was confirmed under a microscope. Thereafter, 1 mL of D-MEM was added to each well, and the cells were released by pipetting, suspended, and then recovered in a 15 mL PP tube.
The tube was centrifuged (300× g, 5 minutes) and the supernatant was removed with an aspirator. An appropriate amount of a D-MEM medium (containing 10% FBS or 20% FBS) was added to the cell pellet, and mixed by pipetting. A part of the cell suspension was collected and the number of cells was evaluated with a cell counter. After counting the […] in each well, the cell suspensions in the same group were collected in one tube and mixed together. The average value of individual wells was used to calculate the number of cells at the time of passage.
The cell suspension was appropriately diluted with D-MEM (10% FBS or 20% FBS). The cells were seeded on a new CellBIND 6-well plate at […] cells/well. Furthermore, one well was adjusted to 2 mL/well. After 2 to 4 days, medium exchange was performed with a medium at room temperature.
The average value of the counts of number of cells per well acquired during the passage was used to create a cell growth straight line. In addition, a value obtained by dividing the number of cells per well at the time of passage by the number of cells at the time of seeding was defined as a growth rate during that period, and the rate was used at the time of calculating a cumulative number of cells. In a case in which the number of cells per well at the time of initial seeding is defined as P(0) and the time of the N^th passage is defined as P(N), the cumulative number of cells at each passage is determined by the following calculation equation. […]

[2] = Thermal stability by protein thermal shift assay (SYPRO Orange); type: physicochemical; details: 0.5 mg/mL in D-PBS, 25° C. to 95° C., 1° C./min
Method: The Td is evaluated by a Td value at the time of raising the temperature from 25° C. to 95° C. (temperature rising rate: 1° C./min) under the solution conditions of a protein concentration (0.5 mg/mL) in a D-PBS solution (including 0.2 g of KH2PO4, 1.15 g of Na2HPO4, 0.2 g of KCl, and 8 g of NaCl per liter of the aqueous solution, pH 7.4).
The thermal stability of VHH was measured by a protein thermal shift assay method.
In order to confirm the thermal stability of the VHH monomer Clone #1 and the tandem dimer #1L4, the denaturation temperature (Td) was measured by a protein thermal shift assay method. […] In addition, in order to measure the fluorescence background, a control including no protein was also prepared at the same time, and dispensed into an 8-strip PCR tube (manufactured by Nippon Genetics Co., Ltd.). This tube was set in a real-time PCR measuring device, QuantStudio 3 (manufactured by Thermo Fisher Scientific, Inc.), and a change in fluorescence intensity in a range of 25° C. to 95° C. was measured under the condition of 1° C./min using a fluorescence filter for ROX measurement. After the measurement, Td was calculated using the value obtained by subtracting the background value from the measured value.

[3] = FBS 10%, cells at passage divided by cells at seeding
[4] = FBS 10%, number of cells (average value) at passage P1

| Molecule | P2 Count (3-well) ([1]; FBS 10%) | P2 Growth rate [1, 3] | P3 Count (3-well) ([1]; FBS 10%) | P3 Growth rate ([1]; FBS 10%) | P4 Count (3-well) ([1]; FBS 10%) | P4 Growth rate ([1]; FBS 10%) | P5 Count (3-well) ([1]; FBS 10%) | P5 Growth rate ([1]; FBS 10%) | cumulative number of cells (average value), P1 ([1]; FBS 10%) | cumulative number of cells (average value), P2 ([1]; FBS 10%) | cumulative number of cells (average value), P3 ([1]; FBS 10%) | cumulative number of cells (average value), P4 ([1]; FBS 10%) | cumulative number of cells (average value), P5 ([1]; FBS 10%) | P1 Count (2-well) [1, 4] | P1 Count (2-well) ([1]; FBS 20%, P1) | P2 Count (3-well) ([1]; FBS 20%) | P2 Growth rate ([1]; FBS 20%) | P3 Count (3-well) ([1]; FBS 20%) | P3 Growth rate ([1]; FBS 20%) | P4 Count (3-well) ([1]; FBS 20%) | other results |
| --- | --- | --- | --- | --- | --- | --- | --- | --- | --- | --- | --- | --- | --- | --- | --- | --- | --- | --- | --- | --- | --- |
| FGF2: fibroblast growth factor (basic), human, recombinant (154aa), positive control; SEQ ID NO: 58 [reference compound] | 3.6E+05 | 7.2 | 3.5E+05 | 7.0 | 3.0E+05 | 6.0 | 2.0E+05 | 3.9 | 6.8E+05 | 4.9E+06 | 3.4E+07 | 2.1E+08 | 8.1E+08 | 6.8E+05 | 1.2E+06 | 5.3E+05 | 10.7 | 6.6E+05 | 13.2 | 5.5E+05 | P4 Growth rate ([1]; FBS 20%): 10.9; P5 Count (3-well) ([1]; FBS 20%): 3.6E+05; P5 Growth rate ([1]; FBS 20%): 7.2; cumulative number of cells (average value), P1 ([1]; FBS 20%): 1.2E+06; cumulative number of cells (average value), P2 ([1]; FBS 20%): 1.3E+07; cumulative number of cells (average value), P3 ([1]; FBS 20%): 1.7E+08; cumulative number of cells (average value), P4 ([1]; FBS 20%): 1.8E+09; cumulative number of cells (average value), P5 ([1]; FBS 20%): 1.3E+10; growth performance of MSC (cumulative number of cells) [1]: almost the same growth performance |
| #1-L4-#1: dimer of VHH #1 with linker L4 (GSEGKSSGSGSESKST), SEQ ID NO: 23 (protein, #1-L4-#1) VHH: QLQLVESGGGSVQAGGSLRLSCAASRSLSRFNVWTWYRQAPVKQRELVASITKSGDTNYAESVKGRFIISRDDDKNTVYLQMNNLKSEDTGIYYCAGSYYSGSYLYPSPGGFSVWGQGTQVTVSSGSEGKSSGSGSESKSTQLQLVESGGGSVQAGGSLRLSCAASRSLSRFNVWTWYRQAPVKQRELVASITKSGDTNYAESVKGRFIISRDDDKNTVYLQMNNLKSEDTGIYYCAGSYYSGSYLYPSPGGFSVWGQGTQVTVSS | 4.3E+05 | 8.5 | 3.7E+05 | 7.5 | 2.9E+05 | 5.8 | 2.2E+05 | 4.3 | 6.3E+05 | 5.4E+06 | 4.0E+07 | 2.3E+08 | 1.0E+09 | 6.3E+05 | 1.3E+06 | 8.4E+05 | 16.7 | 6.9E+05 | 13.7 | 4.9E+05 | denaturation temperature (Td) [2]: 75.4 °C; morphology of MSC ([1]; 10% FBS, low concentration (1 ng/mL)): flattened morphology; morphology of MSC ([1]; 20% FBS): same morphology was exhibited regardless of the addition concentration; P4 Growth rate ([1]; FBS 20%): 9.7; P5 Count (3-well) ([1]; FBS 20%): 4.3E+05; P5 Growth rate ([1]; FBS 20%): 8.7; cumulative number of cells (average value), P1 ([1]; FBS 20%): 1.3E+06; cumulative number of cells (average value), P2 ([1]; FBS 20%): 2.1E+07; cumulative number of cells (average value), P3 ([1]; FBS 20%): 2.9E+08; cumulative number of cells (average value), P4 ([1]; FBS 20%): 2.8E+09; cumulative number of cells (average value), P5 ([1]; FBS 20%): 2.4E+10; growth performance of MSC (cumulative number of cells) [1]: almost the same growth performance |
| VHH Clone #1: alpaca-derived VHH single-domain antibody (monomer) binding FGFR1, amino acid sequence SEQ ID NO: 17 (protein, VHH_Clone_#1) VHH: QLQLVESGGGSVQAGGSLRLSCAASRSLSRFNVWTWYRQAPVKQRELVASITKSGDTNYAESVKGRFIISRDDDKNTVYLQMNNLKSEDTGIYYCAGSYYSGSYLYPSPGGFSVWGQGTQVTVSS |  |  |  |  |  |  |  |  |  |  |  |  |  |  |  |  |  |  |  |  | denaturation temperature (Td) [2]: 74.1 °C |
